This note sets out measurements from paper PMC12017989, “Carbohydrate deacetylase, a key enzyme in oxidative chitin degradation, is evolutionarily linked to amino acid deacetylase [drawing 1]” (The Journal of Biological Chemistry, 2025).

The target in one data set is T1, AfDam (Alcaligenes faecalis, UniProt Q9AGH8).
T1 sequence (Q9AGH8 1-484): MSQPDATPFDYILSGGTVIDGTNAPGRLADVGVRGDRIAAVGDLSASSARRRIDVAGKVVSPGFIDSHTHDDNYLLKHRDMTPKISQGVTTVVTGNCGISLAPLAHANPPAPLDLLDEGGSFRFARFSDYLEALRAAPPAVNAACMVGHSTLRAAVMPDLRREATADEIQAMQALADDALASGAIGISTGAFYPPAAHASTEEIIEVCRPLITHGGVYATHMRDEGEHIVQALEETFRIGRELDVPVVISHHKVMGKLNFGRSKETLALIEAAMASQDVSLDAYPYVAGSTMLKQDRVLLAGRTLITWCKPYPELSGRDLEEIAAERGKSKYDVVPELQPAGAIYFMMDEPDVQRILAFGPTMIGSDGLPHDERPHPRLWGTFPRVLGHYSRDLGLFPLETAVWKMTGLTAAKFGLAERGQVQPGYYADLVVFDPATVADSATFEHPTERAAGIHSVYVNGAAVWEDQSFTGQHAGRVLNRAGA
Kind of data set: deacetylase activity assay. It is filed as biochemical. The settings on record: 10 mM substrate, 10 mM Bis-Tris pH 7.0, 40 °C.

The test system of data set [1] is CC(=O)N[C@@H](C(=O)O)[C@@H](O)[C@H](O)[C@H](O)CO. The experiment in a line: purified protein. As to conditions: 10 mM Bis-Tris pH 7.5, 30 °C, 2-120 mM substrate, Zn enzyme.
In the next data set the target is T2, PpOngB (Pseudoalteromonas prydzensis, UniProt Z9WEX2YQL1, D368A).
T2 construct: pET-22b, His tag; E. coli BL21(DE3); residues 7-482 seen in crystal; one Zn
T2 sequence (Z9WEX2YQL1 1-489 D368A): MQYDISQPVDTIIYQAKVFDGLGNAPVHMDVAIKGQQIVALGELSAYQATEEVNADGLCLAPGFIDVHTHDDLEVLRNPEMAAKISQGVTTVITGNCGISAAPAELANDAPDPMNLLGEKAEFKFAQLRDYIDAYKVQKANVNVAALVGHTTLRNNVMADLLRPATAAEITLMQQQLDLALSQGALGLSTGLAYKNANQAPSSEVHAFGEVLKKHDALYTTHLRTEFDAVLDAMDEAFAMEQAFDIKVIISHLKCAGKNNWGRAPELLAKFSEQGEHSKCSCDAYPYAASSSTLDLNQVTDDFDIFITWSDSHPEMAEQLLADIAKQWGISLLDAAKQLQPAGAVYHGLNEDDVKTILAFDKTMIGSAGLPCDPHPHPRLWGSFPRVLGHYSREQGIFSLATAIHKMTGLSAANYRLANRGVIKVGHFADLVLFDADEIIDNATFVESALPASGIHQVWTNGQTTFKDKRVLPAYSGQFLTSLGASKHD
The experiment in a line: X-ray crystal structure, […] Å. The data set is classed as binding. The settings on record: inactive mutant cocrystallised; active site, open-chain aldonic acid coordinating zinc.

The target in the next data set is T3, BbDam (Bordetella bronchiseptica, UniProt A0A0H3LXD5).
T3 construct: gene BB3285
The experiment in a line: deacetylase activity assay. It is filed as biochemical. The settings on record: 10 mM substrate, 50 mM Hepes pH 8.0, 30 °C.

Substrate in data set [2]: CC(=O)N[C@@H](C(=O)O)[C@@H](O)[C@H](O)[C@H](O)CO
The experiment in a line: ninhydrin assay of primary amine, Michaelis-Menten fit. It is filed as biochemical, Pseudoalteromonas maricaloris. As to conditions: 10 mM Bis-Tris pH 7.5, 30 °C, 2-120 mM substrate, Zn enzyme. From the text:
ninhydrin assay of primary amine, Michaelis-Menten fit on PfOngB

Substrate in data set [3]: CC(=O)N[C@@H](C(=O)O)[C@@H](O)[C@H](O)[C@H](O)CO
The data set is described as above. The data set is classed as biochemical, Pseudoalteromonas prydzensis. As to conditions: 10 mM Bis-Tris pH 7.5, 30 °C, 2-120 mM substrate, Zn enzyme. From the text:
ninhydrin assay of primary amine, Michaelis-Menten fit on PpOngB

T3 sequence (A0A0H3LXD5 entry or part of it): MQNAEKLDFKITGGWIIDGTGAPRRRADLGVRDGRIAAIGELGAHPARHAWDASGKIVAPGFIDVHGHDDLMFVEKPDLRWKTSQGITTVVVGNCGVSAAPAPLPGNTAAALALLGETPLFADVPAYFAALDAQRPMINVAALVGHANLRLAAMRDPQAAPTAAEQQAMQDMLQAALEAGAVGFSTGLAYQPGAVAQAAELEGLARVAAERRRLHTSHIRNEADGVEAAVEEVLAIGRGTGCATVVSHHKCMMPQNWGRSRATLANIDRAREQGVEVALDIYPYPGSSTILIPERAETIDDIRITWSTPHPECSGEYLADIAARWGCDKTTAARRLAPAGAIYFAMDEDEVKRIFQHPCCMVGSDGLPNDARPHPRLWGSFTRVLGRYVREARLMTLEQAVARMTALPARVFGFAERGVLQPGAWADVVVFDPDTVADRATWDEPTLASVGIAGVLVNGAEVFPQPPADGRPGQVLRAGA

As for `CSCC[C@@H](NC(C)=O)C(=O)O` [N-acetyl-D-methionine], the deacetylase activity assay result at AfDam is “enzymatic activities of AfDam and its mutants”.

As for PaOngB (Pseudoalteromonas arabiensis), in data set [1], the Km was determined as 9.1 ± 0.8 mM, the Vmax came to 6.3 µmol/min/mg, the catalytic constant (kcat) was 5.5 ± 0.3 s⁻¹ and the kcat/Km was 600 M⁻¹ s⁻¹.

For the molecule `CC(=O)N[C@@H](C(=O)O)[C@@H](O)[C@H](O)[C@H](O)CO` [GlcNAc1A, 2-(acetylamino)-2-deoxy-D-gluconic acid], the “X-ray crystal structure, 2.29 Å” value on PpOngB was “crystal structure of PpOngB in complex with GlcNAc1A (the PpOngB-GlcNAc1A complex)”.

As for `CC(=O)N[C@H](CCC(=O)O)C(=O)O` [N-acetyl-D-glutamate], the deacetylase activity assay result at BbDam was “enzymatic activities of BbDam and its mutants”.

B1: PfOngB (Pseudoalteromonas maricaloris) (protein)
chain: MLSSSPYVDTLIQGATVYFEPDSEAQVVDVAISKDKIVALGNCSHLQALQCIDATGLVLAPGFIDVHTHDDLEVLRGPYMLSKVSQGVTTVIAGNCGISAVPYCADQAPLDPINLLGEQSEFAYRELQDYQHAFSKAAPSVNLATLVGHTTLRAQVMTDLSQAANAQELEQMKTLLHQAMAQGAIGFSTGLAYYNAKGASQAEVNALAEVVTPFDGIYTTHLRTEFQGVIRAMDEAFATAEHAKLPLVISHIKCAGRENWGRAPEVLAHFELHRKTHPVSCDCYPYAASSSTLDLNQVTEETDIFITWSESHPELAQQSLANIATQWQVSQRDAAKRLQPAGAVYHCMLEDDVQRFVSYEHSMVGSDGLPCDPHPHPRLWGTFPRVLGHYCREQQSLPLALAIHKMTALPAARFKLRQRGNIQIGYFADLVLFDPNRVLDQASYSNPKQLASGIVKVWVNGKLSYVEGANADTIVDFGRAGRFLTRQN
notes: recombinant, cloned like PpOngB (pET-22b, His tag)
Turning to B1, in data set [2], the Km was found to be 17.2 ± 1.0 mM, the Vmax came to 13.4 µmol/min/mg, the kcat amounted to 11.9 ± 0.7 s⁻¹ and the kcat/Km worked out at 700 M⁻¹ s⁻¹.

B2: PpOngB (Pseudoalteromonas prydzensis) (protein)
chain: MQYDISQPVDTIIYQAKVFDGLGNAPVHMDVAIKGQQIVALGELSAYQATEEVNADGLCLAPGFIDVHTHDDLEVLRNPEMAAKISQGVTTVITGNCGISAAPAELANDAPDPMNLLGEKAEFKFAQLRDYIDAYKVQKANVNVAALVGHTTLRNNVMADLLRPATAAEITLMQQQLDLALSQGALGLSTGLAYKNANQAPSSEVHAFGEVLKKHDALYTTHLRTEFDAVLDAMDEAFAMEQAFDIKVIISHLKCAGKNNWGRAPELLAKFSEQGEHSKCSCDAYPYAASSSTLDLNQVTDDFDIFITWSDSHPEMAEQLLADIAKQWGISLLDAAKQLQPAGAVYHGLNEDDVKTILAFDKTMIGSDGLPCDPHPHPRLWGSFPRVLGHYSREQGIFSLATAIHKMTGLSAANYRLANRGVIKVGHFADLVLFDADEIIDNATFVESALPASGIHQVWTNGQTTFKDKRVLPAYSGQFLTSLGASKHD
notes: pET-22b, His tag; E. coli BL21(DE3); residues 7-482 seen in crystal; one Zn
For the molecule B2, in data set [3], the Km is 9.8 ± 0.8 mM, the Vmax stood at 17.4 µmol/min/mg, the kcat stood at 15.4 ± 1.3 s⁻¹ and the kcat/Km was 1600 M⁻¹ s⁻¹.

B3: PpOngB (Pseudoalteromonas prydzensis; S292T) (protein)
chain: MQYDISQPVDTIIYQAKVFDGLGNAPVHMDVAIKGQQIVALGELSAYQATEEVNADGLCLAPGFIDVHTHDDLEVLRNPEMAAKISQGVTTVITGNCGISAAPAELANDAPDPMNLLGEKAEFKFAQLRDYIDAYKVQKANVNVAALVGHTTLRNNVMADLLRPATAAEITLMQQQLDLALSQGALGLSTGLAYKNANQAPSSEVHAFGEVLKKHDALYTTHLRTEFDAVLDAMDEAFAMEQAFDIKVIISHLKCAGKNNWGRAPELLAKFSEQGEHSKCSCDAYPYAASSTTLDLNQVTDDFDIFITWSDSHPEMAEQLLADIAKQWGISLLDAAKQLQPAGAVYHGLNEDDVKTILAFDKTMIGSDGLPCDPHPHPRLWGSFPRVLGHYSREQGIFSLATAIHKMTGLSAANYRLANRGVIKVGHFADLVLFDADEIIDNATFVESALPASGIHQVWTNGQTTFKDKRVLPAYSGQFLTSLGASKHD
notes: as for B2
Consider B3, for which, in data set [3], the Km is on record as 54.2 ± 1.8 mM, the Vmax was 1.3 µmol/min/mg and the kcat was 1.1 ± 0.1 s⁻¹.

B4: PpOngB (Pseudoalteromonas prydzensis; Q298N) (protein)
chain: MQYDISQPVDTIIYQAKVFDGLGNAPVHMDVAIKGQQIVALGELSAYQATEEVNADGLCLAPGFIDVHTHDDLEVLRNPEMAAKISQGVTTVITGNCGISAAPAELANDAPDPMNLLGEKAEFKFAQLRDYIDAYKVQKANVNVAALVGHTTLRNNVMADLLRPATAAEITLMQQQLDLALSQGALGLSTGLAYKNANQAPSSEVHAFGEVLKKHDALYTTHLRTEFDAVLDAMDEAFAMEQAFDIKVIISHLKCAGKNNWGRAPELLAKFSEQGEHSKCSCDAYPYAASSSTLDLNNVTDDFDIFITWSDSHPEMAEQLLADIAKQWGISLLDAAKQLQPAGAVYHGLNEDDVKTILAFDKTMIGSDGLPCDPHPHPRLWGSFPRVLGHYSREQGIFSLATAIHKMTGLSAANYRLANRGVIKVGHFADLVLFDADEIIDNATFVESALPASGIHQVWTNGQTTFKDKRVLPAYSGQFLTSLGASKHD
notes: as for B2
For B4, in data set [3], the Km is 53.4 ± 2.5 mM, the Vmax stood at 9.4 µmol/min/mg and the kcat amounted to 8.3 ± 0.3 s⁻¹.

B5: PpOngB (Pseudoalteromonas prydzensis; Q298A) (protein)
chain: MQYDISQPVDTIIYQAKVFDGLGNAPVHMDVAIKGQQIVALGELSAYQATEEVNADGLCLAPGFIDVHTHDDLEVLRNPEMAAKISQGVTTVITGNCGISAAPAELANDAPDPMNLLGEKAEFKFAQLRDYIDAYKVQKANVNVAALVGHTTLRNNVMADLLRPATAAEITLMQQQLDLALSQGALGLSTGLAYKNANQAPSSEVHAFGEVLKKHDALYTTHLRTEFDAVLDAMDEAFAMEQAFDIKVIISHLKCAGKNNWGRAPELLAKFSEQGEHSKCSCDAYPYAASSSTLDLNAVTDDFDIFITWSDSHPEMAEQLLADIAKQWGISLLDAAKQLQPAGAVYHGLNEDDVKTILAFDKTMIGSDGLPCDPHPHPRLWGSFPRVLGHYSREQGIFSLATAIHKMTGLSAANYRLANRGVIKVGHFADLVLFDADEIIDNATFVESALPASGIHQVWTNGQTTFKDKRVLPAYSGQFLTSLGASKHD
notes: as for B2
As for B5, in data set [3], the Km came to 59.7 ± 5.0 mM, the Vmax is 7.7 µmol/min/mg and the kcat is 6.8 ± 0.6 s⁻¹.

The term Km denotes the concentration of substrate that gives half-maximal velocity. A word on the Vmax: it is the rate approached at saturating substrate. Broadly, the kcat is the maximal rate divided by the concentration of active sites. One may read the kcat/Km as the turnover number divided by the Michaelis constant.
